Laboratory results reported in the supplement of paper PMC10724198.
± gives the standard deviation of the averaged measurements.

These sequences were tested on Saccharomyces cerevisiae (assay: protein stability index of tFT-peptide fusion (C-terminal peptide) (PSI (0-1 scale)); higher = more stable (slower turnover)). Details: genetic background: wild type; temperature: 30 C.
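Note: PSI is a weighted mean of sequencing reads over stability bins, variants kept only with over 10 reads, mCherry proximal and sfGFP distal, peptide attached via GGGS linker.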

| Sequence | protein stability index |
| --- | --- |
| TPKAMHPNPNTL | 0.6458 ± 0.0024 |
| TPLLRRHSFSRN | 0.779 ± 0.021 |
| TPLPLPPPRPSP | 0.685 ± 0.0031 |
| TPLPSLPRPSAP | 0.736 ± 0.016 |
| TPPLHSPFLFPP | 0.671 ± 0.049 |
| TPPPPLSCPPPS | 0.487 ± 0.035 |
| TPPPPLVPPLPP | 0.578 ± 0.017 |
| TPPPTPSLPTRP | 0.677 ± 0.057 |
| TPPTHPPPLPPL | 0.752 ± 0.11 |
| TPRSCTLPTPPP | 0.606 ± 0.051 |
| TPSFTLNAYMLT | 0.693 ± 0.014 |
| TPTPPPSFLHGS | 0.663 ± 0.046 |
| TPTPPRPPFRSP | 0.709 ± 0.035 |
| TPVLPLSPFPPD | 0.607 ± 0.059 |
| TPVPIARLRESH | 0.709 ± 0.035 |
| TPVVSVFFLPHY | 0.673 ± 0.0095 |
| TQHPQPCPLAAV | 0.712 ± 0.12 |
| TQSNRKPLECPS | 0.679 ± 0.066 |
| TRGGTVKDRQQR | 0.702 ± 0.037 |
| TRGSLIFACSVF | 0.576 ± 0.033 |
| TRIEPTQGVDSP | 0.664 ± 0.01 |
| TRPKINKGKGTG | 0.6677 ± 0.0014 |
| TRQGDLYYYLYV | 0.67 ± 0.024 |

| Sequence | protein stability index |
| --- | --- |
| TRRKVKYTELYQ | 0.69 ± 0.041 |
| TRRVKWSWLLKP | 0.7 ± 0.08 |
| TRSAFPSFPTRS | 0.68 ± 0.02 |
| TRTSRGRTLTTL | 0.583 ± 0.016 |
| TRVGNMVARRGS | 0.687 ± 0.048 |
| TSFAPPSLPRHS | 0.735 ± 0.056 |
| TSGAEKLPIANS | 0.648 ± 0.05 |
| TSGAKKISSGTQ | 0.707 ± 0.036 |
| TSLPPNLMRTAA | 0.634 ± 0.04 |
| TSNGSGLMFQSQ | 0.62 ± 0.019 |
| TSNLRIISTWRV | 0.685 ± 0.024 |
| TSPGCPFAFITL | 0.714 ± 0.052 |
| TSPPPPIPLPPR | 0.695 ± 0.032 |
| TSPSPLPPLFFT | 0.706 ± 0.0087 |
| TSPTKSPTTTNN | 0.709 ± 0.039 |
| TSSTATWSYRNY | 0.673 ± 0.036 |
| TSTHSFLDFGTG | 0.6272 ± 0.0011 |
| TSTTGLHVSAMS | 0.727 ± 0.021 |
| TSVVRIGVYRAS | 0.613 ± 0.037 |
| TTGNTHALSHAH | 0.717 ± 0.055 |
| TTLNAETCFPLS | 0.702 ± 0.043 |
| TTLPFLLGSGGF | 0.677 ± 0.065 |
| TTVESYLDRRRY | 0.664 ± 0.035 |

| Sequence | protein stability index |
| --- | --- |
| TTVSSSLSPVPD | 0.7181 ± 0.0054 |
| TVERGGSLSLVV | 0.718 ± 0.026 |
| TVKAGESILEQR | 0.716 ± 0.013 |
| TVMRPSVGHVDG | 0.68 ± 0.038 |
| TVSRNKKKKQIQ | 0.613 ± 0.038 |
| TVVYPFHSGGFA | 0.694 ± 0.024 |
| TWGRPGGDHPRE | 0.708 ± 0.0096 |
| TWRRAVSERPYP | 0.725 ± 0.1 |
| TWRRGSKPHVRS | 0.724 ± 0.044 |
| TYKKAKIRKKYI | 0.6237 ± 0.0045 |
| TYLGISNLHPAI | 0.709 ± 0.031 |
| TYLSAWQFCVAS | 0.579 ± 0.049 |
| TYRPEMYSRVLT | 0.738 ± 0.011 |
| TYRYWGTLRYYD | 0.761 ± 0.07 |
| TYVPRYPPPLFP | 0.72 ± 0.061 |
| VAACVSLFCGAL | 0.719 ± 0.074 |
| VAAEGCGAALSR | 0.627 ± 0.0099 |
| VAESCVIVFWLG | 0.506 ± 0.0056 |
| VAGGGGGCLVDC | 0.646 ± 0.022 |
| VAGKVWREAEPG | 0.656 ± 0.029 |
| VAGSQYTAGGDV | 0.635 ± 0.044 |
| VALSSECVLSGV | 0.656 ± 0.025 |
| VARLCVPSGPGH | 0.721 ± 0.0096 |

| Sequence | protein stability index |
| --- | --- |
| VASLSGGQISFG | 0.612 ± 0.029 |
| VASTSLPDIRGV | 0.631 ± 0.07 |
| VASWNSDKTKND | 0.752 ± 0.12 |
| VAVGIEGGWWGV | 0.78 ± 0.042 |
| VAYRGGGGWRIS | 0.6865 ± 0.005 |
| VAYSKWIGEIRD | 0.71 ± 0.038 |
| VAYYFVRNIIGE | 0.667 ± 0.056 |
| VCAVAQPCRVQL | 0.683 ± 0.025 |
| VCCDRWWFAFWE | 0.7241 ± 0.0012 |
| VCGPCVESLETR | 0.689 ± 0.059 |
| VCGVSWSRFPVL | 0.716 ± 0.0099 |
| VCILPVTCAGMF | 0.6224 ± 0.0012 |
| VCLFWGVSAGCK | 0.65 ± 0.04 |
| VCLGGWCMWGWR | 0.585 ± 0.017 |
| VCNLIRILSLVI | 0.496 ± 0.031 |
| VCVCCMGCGLGV | 0.68773 ± 5.6e-05 |
| VCVGCAACIVGV | 0.636 ± 0.026 |
| VCVVGGSILRAV | 0.711 ± 0.048 |
| VCWLTCCGQLIA | 0.514 ± 0.0068 |
| VCWVRGGGVLDG | 0.711 ± 0.053 |
| VCYGELTISNLE | 0.654 ± 0.045 |
| VDCTCLPKRTYE | 0.643 ± 0.1 |
| VDGLRASRFVGS | 0.7 ± 0.048 |

| Sequence | protein stability index |
| --- | --- |
| VDHIKAHSDSEE | 0.756 ± 0.1 |
| VDKLVRCISVSI | 0.5428 ± 0.0013 |
| VDLLFLMVGTSV | 0.574 ± 0.011 |
| VDRLDAACCIFC | 0.601 ± 0.031 |
| VDVSVLVGLNFV | 0.797 ± 0.056 |
| VECEARTVEKAN | 0.63072 ± 0.00022 |
| VECGVAGSLDLA | 0.713 ± 0.014 |
| VEEYKKRNNKEG | 0.64 ± 0.01 |
| VEHQVNMGDGEM | 0.63525 ± 3.1e-05 |
| VEYSVVDKRLLY | 0.651 ± 0.065 |
| VEYVRSGTLVSG | 0.658 ± 0.06 |
| VFFSCVRFCLWF | 0.562 ± 0.0082 |
| VFLISPSSFSPP | 0.738 ± 0.033 |
| VFLNRGSHQQET | 0.691 ± 0.056 |
| VFLQRIDDKSPY | 0.712 ± 0.046 |
| VFLRSGCSGWGE | 0.827 ± 0.094 |
| VFLRSPSRAPSL | 0.72 ± 0.078 |
| VFMPVGVGGGSC | 0.678 ± 0.05 |
| VFPLSLLLTSFL | 0.591 ± 0.047 |
| VFPSLCITSVCT | 0.53 ± 0.02 |
| VFPVGSGLWRVF | 0.63 ± 0.016 |
| VFRFAPILHSHR | 0.585 ± 0.019 |
| VFSCPLLFASFS | 0.672 ± 0.041 |

| Sequence | protein stability index |
| --- | --- |
| VFSPVLVCKMGE | 0.698 ± 0.024 |
| VFTCTGVLFGGM | 0.768 ± 0.12 |
| VFTSPPPLPSPP | 0.728 ± 0.029 |
| VGADVLAYRGVA | 0.604 ± 0.025 |
| VGASRAGGEVSR | 0.651 ± 0.013 |
| VGCACGYGGCGL | 0.682 ± 0.058 |
| VGCEGGRRGVGG | 0.65 ± 0.059 |
| VGCSDFSAIVLD | 0.713 ± 0.069 |
| VGCSSHAFGSSV | 0.686 ± 0.053 |
| VGCSVGHFQRLF | 0.677 ± 0.017 |
| VGDGQGGGGQGG | 0.661 ± 0.022 |
| VGDGQGWGGQGG | 0.688 ± 0.0075 |
| VGDRCDECGFWA | 0.699 ± 0.0043 |
| VGFLGFFVVEGV | 0.545 ± 0.033 |
| VGGGGGAEGAGW | 0.739 ± 0.12 |
| VGGGGGGGWWHW | 0.805 ± 0.011 |
| VGGGGLGVEAWG | 0.613 ± 0.059 |
| VGGGGVGAGVWG | 0.653 ± 0.086 |
| VGGGPAALGMWI | 0.689 ± 0.077 |
| VGGGVGVPGVLG | 0.672 ± 0.012 |
| VGGIVGGFCRGR | 0.701 ± 0.069 |
| VGGPRVLVRGVY | 0.6754 ± 0.0055 |
| VGGRVESLGVGD | 0.584 ± 0.017 |

| Sequence | protein stability index |
| --- | --- |
| VGGVGGLWVGAV | 0.7143 ± 0.0018 |
| VGGVWAGGGCSF | 0.651 ± 0.12 |
| VGGWGWLPLPWC | 0.678 ± 0.13 |
| VGGWWAREVVEL | 0.753 ± 0.0085 |
| VGHCSEGTFYPG | 0.65 ± 0.12 |
| VGICWLTEPVLY | 0.731 ± 0.089 |
| VGKFGGAGGICQ | 0.685 ± 0.013 |
| VGKIRWIGFGGW | 0.695 ± 0.051 |
| VGLGGTGGESRY | 0.706 ± 0.027 |
| VGLGMREWLGVE | 0.758 ± 0.026 |
| VGNPHKRGWRAR | 0.60903 ± 0.00027 |
| VGPFRISRSFTG | 0.7174 ± 0.004 |
| VGQGVPEGGGQW | 0.726 ± 0.018 |
| VGRGEEAHTPRR | 0.678 ± 0.013 |
| VGRGGGVSLGGR | 0.671 ± 0.082 |
| VGRGGPGVGGSW | 0.736 ± 0.043 |
| VGRVNRNERCQR | 0.587 ± 0.022 |
| VGSSGDEWGRYG | 0.7332 ± 0.0046 |
| VGVCCLSGDGFV | 0.6889 ± 0.0048 |
| VGVGGEQISIEY | 0.723 ± 0.054 |
| VGVGWAALRWYG | 0.6761 ± 0.0047 |
| VGVIREGKENGN | 0.656 ± 0.023 |
